The values below come from US20170119913A1 (3B PHARMACEUTICALS, published 2017).

The Ki is the dissociation constant of the complex between target and ligand, obtained from inhibition or displacement. Read a low Ki as higher affinity.

This test addresses T1, CCR1 (h), C-C chemokine receptor type 1 (human (printed as (h)), UniProt P32246 1-355).
T1 sequence (looked up): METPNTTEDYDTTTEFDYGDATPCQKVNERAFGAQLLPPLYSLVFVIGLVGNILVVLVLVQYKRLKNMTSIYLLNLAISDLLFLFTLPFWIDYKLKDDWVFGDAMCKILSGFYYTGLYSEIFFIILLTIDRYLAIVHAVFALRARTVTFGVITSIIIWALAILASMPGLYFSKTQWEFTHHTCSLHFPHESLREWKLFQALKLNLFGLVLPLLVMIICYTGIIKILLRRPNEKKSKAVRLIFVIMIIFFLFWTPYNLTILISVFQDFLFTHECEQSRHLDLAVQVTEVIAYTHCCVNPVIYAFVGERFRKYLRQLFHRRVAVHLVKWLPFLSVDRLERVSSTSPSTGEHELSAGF
The test can be described thus: Cerep ExpresSProfile radioligand competition binding, reference compound (agonist radioligand). A general note: In a radioligand displacement assay an active substance lowers the binding of a labelled ligand.

B1: MIP-1alpha (ligand, UniProt P10147 24-92, looked up)
chain: SLAADTPTACCFSYTSRQIPQNFIADYFETSSQCSKPGVIFLTKRSRQVCADPSEEWVQKYVSDLELSA
Take B1: the Ki was found to be 0.041 nM.
